Tests used:
MERMUC bait protein = target: T1, MERMUC bait protein (Homo sapiens, UniProt Q8N307); experiment: Yeast two-hybrid binding of c-Met prey deletion proteins to MERMUC bait-2; details: yeast growth on SD/-Leu,-Trp,-His and SD/-Leu,-Trp,-Ade; human MERMUC bait-2
T1 construct: Bait-2 corresponds to a 123 amino acid portion of the C-terminus (bait-2); expressed in transfected cells; host or cells: yeast AH109 strain (pGBKT7 bait vector)
T1 sequence (Q8N307 587-709): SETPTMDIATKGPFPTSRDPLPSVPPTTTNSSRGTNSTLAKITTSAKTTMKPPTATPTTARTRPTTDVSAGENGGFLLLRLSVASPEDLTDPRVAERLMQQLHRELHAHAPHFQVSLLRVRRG
Experimental: The present invention was performed using the reported yeast two-hybrid system (Proc. Natl. Acad. Sci. USA., 1991, Vol. 88, p.9578-9582) based on conventional method and the experimental protocols appended to the reagents.
PCR was performed using DNA (clone No. 3-309) corresponding to the 91 amino acids (amino acids 993-1083 of SEQ ID NO: 4) of the C-terminal region of the human HGF receptor c-Met β chain that was identified in the previous Example to have the binding ability to the cytoplasmic region of human MERMUC as a template. Seven DNA fragments shown below corresponding to the C-terminal region of the c-Met β chain having various lengths, wherein various length of N-terminal or C-terminal amino acids are deleted from said 91 amino acids were prepared via a conventional method by PCR: • A. DNA corresponding to a region (amino acids 1003-1083 of SEQ ID NO: 4) that lacks the 10 N-terminal amino acids of the 91 amino acids of the C-terminal human c-Met β chain; • B. DNA corresponding to a region (amino acids 1013-1083 of SEQ ID NO: 4) that lacks the 20 N-terminal amino acids of the 91 amino acids of the C-terminal human c-Met β chain; • C. DNA corresponding to a region (amino acids 1023-1083 of SEQ ID NO: 4) that lacks the 30 N-terminal amino acids of the 91 amino acids of the C-terminal human c-Met β chain; • D. DNA corresponding to a region (amino acids 993-1073 of SEQ ID NO: 4) that lacks the C-terminal 10 amino acids of the 91 amino acids of the C-terminal human c-Met β chain; • E. DNA corresponding to a region (amino acids 993-1063 of SEQ ID NO: 4) that lacks the 20 C-terminal amino acids of the 91 amino acids of the C-terminal human c-Met β chain; • F. DNA corresponding to a region (amino acids 993-1053 of SEQ ID NO: 4) that lacks the 30 C-terminal amino acids of the 91 amino acids of the C-terminal human c-Met β chain; and • G. DNA corresponding to a region (amino acids 993-1043 of SEQ ID NO: 4) that lacks the 40 C-terminal amino acids of the 91 amino acids of the C-terminal human c-Met β chain.
Furthermore, the forward and reverse primers used for the PCR were designed to contain an EcoRI site and SalI site at their 5′ end, respectively. Each of the DNA fragments prepared by PCR were inserted into the EcoRI/SalI site of pADKT7 vector (a vector for a prey protein that contains a tryptophan biosynthesis gene as a marker; CLONTECH) in frame with GAL4-AD to prepare prey vectors wherein each of the 7 DNAs described above is inserted.
Each of the 7 prey vectors was cointroduced into yeast AH109 strain with the human MERMUC bait-2 vector prepared in Example 1.
The binding activity between the c-Met prey proteins derived from the 7 DNA fragments and the MERMUC bait protein was analyzed by the yeast two-hybrid system described in Example 1. Specifically, the binding activity was evaluated based on the growth of yeast transformed with the vector on 2 kinds of yeast minimum media, i.e., (1) SD/-Leu, -Trp, -His media and (2) SD/-Leu, -Trp, -Ade media.

[1] = tested on: C-terminal region of human MERMUC (bait-2, bait-3); experiment: Yeast two hybrid screening of human kidney cDNA library with MERMUC baits; assay type: binding; details: for binding ability to the protein derived from bait-2: bait-2 = 123 amino acid portion of the C-terminus of human MERMUC; for binding ability to the protein derived from bait-3: bait-3 = 65 C-terminal amino acids of human MERMUC
Experimental: Specifically, yeast two hybrid system (Proc. Natl. Acad. Sci. USA., 1991, Vol.88, p.9578-9582) was performed to screen a human kidney cDNA library using cDNA corresponding to the C-terminal region of the human MERMUC as the bait (that is, fishing bait).
Two kinds of bait (bait-2 and bait-3) were designed using each of Ex.-2 and Ex.-3 as the core. Bait-2 corresponds to a 123 amino acid portion of the C-terminus (bait-2) and bait-3 corresponds to the 65 C-terminal amino acids (bait-3).
Each bait vector was obtained by inserting each DNA fragment obtained by digesting each of the PCR products with the restriction enzymes EcoRI and SalI into the EcoRI/SalI site of pGBKT7 vector (leucine biosynthesis gene as a marker; CLONTECH). In yeast, the gene within the vector is produced as a fusion protein ([fusion protein A]) with the DNA binding region (GAL4-DB) of the yeast transcription factor GAL4.
On the other hand, each cDNA of the human kidney derived cDNA library (CLONTECH) that is used for the screening with the bait vector is inserted in pADK vector (tryptophan biosynthesis gene as a marker). Therefore, proteins produced through the expression of each of these cDNAs in yeast are produced as a fusion protein ([fusion protein B]) with the GAL4 transcriptional activation region (GAL4-AD).
AH109 strain (leucine, tryptophan, histidine and adenine auxotrophic yeast; CLONTECH) was used as the yeast host. This yeast strain contains 3 types of genes (histidine biosynthesis gene, adenine biosynthesis gene and β-galactosidase gene) under the control of the GAL promoter on the chromosome.
The function as a transcription factor is recovered through the fusion of GAL4-DB and GAL4-AD by the binding of the bait protein (the fusion protein A) with the prey protein (the fusion protein B).
Each bait vector was introduced into yeast AH109 strain with the cDNA library plasmid mentioned above (50,000 clones per pool) by the polyethylene glycol/lithium acetate method for screening (J. Bacteriol., 1983, Vol. 153, p.163-16883; Curr. Genet., 1989, Vol. 16, p. 339-346; Nucleic Acids Res., 1991, Vol. 19, p. 5791; Nucleic Acids Res., 1992, Vol. 20, p.1425).
The marker for the first selection of yeast with the desired transformation in the present screening was acquired histidine non-requirement due to the expression of the histidine biosynthesis gene. Therefore, after introducing the plasmid, yeast was cultured for 5 days at 30° C. in yeast minimum medium that lacks leucine, tryptophan and histidine (SD/-Leu,-Trp,-His) used for selecting transformants.
Transformed yeast that grew on the plate upon cultivation were picked with toothpick and seeded on 3 kinds of plates described below, and then cultured for 5 days at 30° C. for a second selection of the desired clones: • <A> plate containing yeast minimum medium lacking leucine, tryptophan and histidine (SD/-Leu, -Trp, -His); • <B> plate containing yeast minimum medium lacking leucine, tryptophan and adenine (SD/-Leu, -Trp, -Ade); and • <C> plate containing yeast minimum medium lacking leucine and tryptophan, and supplemented with α-X-gal (20 ug/ml) (SD/-Leu, -Trp, +X-gal).
Positive clones were identified as colonies growing on both of the above-mentioned <A> and <B> plates (acquirement of histidine and adenine non-requirement) and showing blue color on plate <C> (α-X-gal addition) (expression of β-galactosidase activity). Four prey cDNA clones (clones No. 3-309, No. 3-312, No. 2-22 and No. 2-211) were selected as positive.

B1: prey DNA D: c-Met prey protein, amino acids 993-1073 of SEQ ID NO: 4 (protein, listed as Homo sapiens)
chain: RRLLQPEYCPDPLYEVMLKCWHPKAEMRPSFSELVSRISAIFSTFIGEHYVHVNATYVNVKCVAPYPSLLSSEDNADDEVD
**Q.** With B1 as the molecule, how does the “binding activity with MERMUC bait protein” value (shortened to “binding activity”) (MERMUC bait protein) read?
**A.** + (bound) (+ (bound))

B2: prey DNA B: c-Met prey protein, amino acids 1013-1083 of SEQ ID NO: 4 (protein, listed as Homo sapiens)
chain: WHPKAEMRPSFSELVSRISAIFSTFIGEHYVHVNATYVNVKCVAPYPSLLSSEDNADDEVDTRPASFWETS
**Q.** For B2, which “binding activity” value (MERMUC bait protein) is on record?
**A.** + (bound) (+ (bound))

B3: clone No. 2-22: prey protein: C-terminal 93 amino acids (amino acids 411-503 of SEQ ID NO: 10) of human MERMUC (protein, listed as Homo sapiens)
chain: SSRGTNSTLAKITTSAKTTMKPPTATPTTARTRPTTDVSAGENGGFLLLRLSVASPEDLTDPRVAERLMQQLHRELHAHAPHFQVSLLRVRRG
**Q.** Which “binding ability to the protein derived from bait-2” value [1] does the source give for B3 here?
**A.** had binding ability

B4: prey DNA A: c-Met prey protein, amino acids 1003-1083 of SEQ ID NO: 4 (protein, listed as Homo sapiens)
chain: DPLYEVMLKCWHPKAEMRPSFSELVSRISAIFSTFIGEHYVHVNATYVNVKCVAPYPSLLSSEDNADDEVDTRPASFWETS
**Q.** B4 was tested. Which “binding activity” value (MERMUC bait protein) did it give?
**A.** + (bound) (+ (bound))

B5: prey DNA E: c-Met prey protein, amino acids 993-1063 of SEQ ID NO: 4 (protein, listed as Homo sapiens)
chain: RRLLQPEYCPDPLYEVMLKCWHPKAEMRPSFSELVSRISAIFSTFIGEHYVHVNATYVNVKCVAPYPSLLS
**Q.** For B5, which “binding activity” value (MERMUC bait protein) is on record?
**A.** + (bound) (+ (bound))

B6: prey DNA C: c-Met prey protein, amino acids 1023-1083 of SEQ ID NO: 4 (protein, listed as Homo sapiens)
chain: FSELVSRISAIFSTFIGEHYVHVNATYVNVKCVAPYPSLLSSEDNADDEVDTRPASFWETS
**Q.** For B6, which “binding activity” value (MERMUC bait protein) is on record?
**A.** − (no binding)

B7: clone No. 3-309: prey protein: C-terminal 91 amino acids (amino acids 993-1083 of SEQ ID NO: 4) of the human c-Met β chain (protein, listed as Homo sapiens)
chain: RRLLQPEYCPDPLYEVMLKCWHPKAEMRPSFSELVSRISAIFSTFIGEHYVHVNATYVNVKCVAPYPSLLSSEDNADDEVDTRPASFWETS
**Q.** B7 was tested. Which “binding ability to the protein derived from bait-2” value [1] did it give?
**A.** had binding ability

**Q.** What about the “binding ability to the protein derived from bait-3” value [1] of the same molecule?
**A.** had binding ability

B8: prey DNA F: c-Met prey protein, amino acids 993-1053 of SEQ ID NO: 4 (protein, listed as Homo sapiens)
chain: RRLLQPEYCPDPLYEVMLKCWHPKAEMRPSFSELVSRISAIFSTFIGEHYVHVNATYVNVK
**Q.** B8 was tested. Which “binding activity” value (MERMUC bait protein) did it give?
**A.** + (bound) (+ (bound))

B9: clone No. 3-312: prey protein: C-terminal 89 amino acids (amino acids 995-1083 of SEQ ID NO: 4) of the human c-Met β chain (protein, listed as Homo sapiens)
chain: LLQPEYCPDPLYEVMLKCWHPKAEMRPSFSELVSRISAIFSTFIGEHYVHVNATYVNVKCVAPYPSLLSSEDNADDEVDTRPASFWETS
**Q.** Which results are given for B9?
**A.** binding ability to the protein derived from bait-2 [1]: had binding ability; binding ability to the protein derived from bait-3 [1]: had binding ability
